The supplement of paper PMC7125110
± gives the standard error. For some of these results: Variants at the floor of the assay were thinned out.

B1: glmS ribozyme (parent)
chain: AUAAAAGCGCCAGAACUACAGAAAUGUAGUUGACGAGGAGGAGGUUUAUCGAAUUUUCGGCGGAUGCCUCCAAA

What was measured:
Conditions in all cases: with glucosamine-6-phosphate
[1] = variants of: B1; test: kcat; higher = faster cleavage; RNA array
Summary of the method: (§1)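 Barcoded glmS ribozyme variants on sequenced MiSeq chips were transcribed in situ by E. coli RNA polymerase and tracked through a hybridised Cy3 probe at 37 °C. Glucosamine-6-phosphate (40 μM to 10 mM) in HEPES/KCl/Mg(OAc)2 buffer was flowed in, and tiles were imaged over ~14 h. Signals were normalised to baseline and to non-cleaving reference variants; per-tile medians were fit to one- or two-exponential decays to give kobs. kcat and KM came from weighted Michaelis–Menten fits across concentrations.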

[2] = variants of: B1; test: self-cleavage kobs at 160 uM GlcN6P; higher = faster cleavage; RNA array
Summary of the method: as §1

[3] = variants of: B1; test: self-cleavage kobs at 640 uM GlcN6P; higher = faster cleavage; RNA array
Summary of the method: as §1

[4] = variants of: B1; test: self-cleavage kobs at 2500 uM GlcN6P; higher = faster cleavage; RNA array
Summary of the method: as §1

[5] = variants of: B1; test: self-cleavage kobs at 10000 uM GlcN6P; higher = faster cleavage; RNA array
Summary of the method: as §1

[6] = variants of: B1; test: KM; higher = weaker cofactor use; RNA array
Summary of the method: as §1

[7] = variants of: B1; test: self-cleavage kobs at 40 uM GlcN6P; higher = faster cleavage; RNA array
Summary of the method: as §1

Variant	kcat [1] [s⁻¹]	self-cleavage kobs at 160 uM GlcN6P [2] [s⁻¹]	self-cleavage kobs at 640 uM GlcN6P [3] [s⁻¹]	self-cleavage kobs at 2500 uM GlcN6P [4] [s⁻¹]	self-cleavage kobs at 10000 uM GlcN6P [5] [s⁻¹]	KM [6] [µM]	self-cleavage kobs at 40 uM GlcN6P [7] [s⁻¹]
U54A U69A	0.00011 ± 2.2e-05	0.000107 ± 1.5e-05	0.000109 ± 1.9e-05	0.000141 ± 2.3e-05	8.28e-05 ± 1.5e-05		
A52U U69A	5.73e-05 ± 1.5e-05		4.77e-05 ± 1.1e-05	7.38e-05 ± 1.2e-05	3.63e-05 ± 1.2e-05		
A53C C71G	0.00031 ± 7.7e-05	4.25e-05 ± 1.8e-05	0.000101 ± 1.6e-05	0.000182 ± 3.4e-05	0.000335 ± 7.4e-05	1290 ± 620	
A52G U69G	5.99e-05 ± 2e-05	7.33e-05 ± 1.4e-05	0.000113 ± 2.5e-05	7.25e-05 ± 1.2e-05			
A52C U54G G63A	1.25e-05 ± 2.6e-06			< 1e-05	< 1e-05		
U54C G66U	0.0027 ± 0.00084	0.000108 ± 2.3e-05	0.000359 ± 6.3e-05	0.00132 ± 0.0002	0.00199 ± 0.00024	3380 ± 1600	6.62e-05 ± 1.2e-05
U54A U57C	0.000159 ± 5.5e-06		3.98e-05 ± 1e-05	8.52e-05 ± 1.3e-05	0.000134 ± 2.1e-05	2020 ± 160	
